B1: unnamed (parent)
chain 1: DKEWILQKIYEIMRLLDELGHAEASMRVSDLIYEF
chain 2: not shown

Variants of: B1
Conditions: with partner chain of the complex shown; 12 nM peptide; read off a plot

Variant	screen value
chain 1 S25A	9%
chain 1 Y10A	18%
chain 1 I32A	46%
chain 1 M13A	92%
chain 1 D30A	96%
chain 1 L19A	1.7%
chain 1 V28A	8.5%
chain 1 I9A	3%
chain 1 F35A	23%
chain 1 L15A	4.5%
chain 1 L31A	18%
chain 1 L6A	69%
chain 1 W4A	3.7%
chain 1 Q7A	19%
chain 1 E34A	20%
chain 1 G20A	66%
chain 1 H21A	31%

Variant	screen value
chain 1 K2A	47%
chain 1 K8A	19%
chain 1 E18A	1%
chain 1 I5A	3%
chain 1 D1A	4.5%
chain 1 L16A	23%
chain 1 E3A	4.5%
chain 1 I12A	7%
chain 1 E23A	50%
chain 1 S29A	49%
chain 1 R14A	24%
chain 1 D17A	14%
chain 1 M26A	67%
chain 1 R27A	3%
chain 1 E11A	26%
chain 1 Y33A	86%

From article PMC9181698
